Data published in patent publication US20050003548A1.

Target: human CD40 on cells (293.CD40 cells, Namalwa cells, human monocyte-derived dendritic cells) (human) (UniProt P25942)
Assay: cell-based or functional assay

Chain of UniProt P25942 (P25942 21-277): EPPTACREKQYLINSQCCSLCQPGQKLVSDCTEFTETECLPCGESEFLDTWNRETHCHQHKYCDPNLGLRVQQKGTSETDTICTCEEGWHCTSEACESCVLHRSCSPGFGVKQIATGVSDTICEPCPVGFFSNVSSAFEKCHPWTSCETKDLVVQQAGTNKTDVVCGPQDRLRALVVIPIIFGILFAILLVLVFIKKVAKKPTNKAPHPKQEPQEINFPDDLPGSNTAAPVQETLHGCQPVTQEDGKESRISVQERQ

| Substance | reporter gene delivery to human monocyte-derived dendritic cells by Ad5.DR-LL-Cd complexed with the ligand, fold over Ad5.DR [fold] |
| --- | --- |
| Fc-CD40L (TNF-like domain of human CD40 Ligand fused to the hinge region of the Fc domain of human IgG gamma 1) (from UniProt P29965 116-261) (Fc fusion) | 28 to 35 |
| Fc-G28.5 (fusion of anti-CD40 single chain antibody G28.5 with the Fc domain of human immunoglobulin and a six-histidine sequence) (Fc fusion) | 28 to 35 |
